Results reported in paper PMC2115722.

Molecular target: Acanthamoeba actin (Acanthamoeba castellanii)
Assay: cross-linking

## Acanthamoeba profilin I (natural protein)
  stoichiometry N (profilin per actin): 1
